This test deals with DEC205 (human (endogenous in blood DCs)) (UniProt O60449). The experiment in a line: flow cytometry on cells. (In general: Flow cytometry measures light scatter and fluorescence of single cells or particles in a stream.)
UniProt O60449, sequence (O60449 28-1722): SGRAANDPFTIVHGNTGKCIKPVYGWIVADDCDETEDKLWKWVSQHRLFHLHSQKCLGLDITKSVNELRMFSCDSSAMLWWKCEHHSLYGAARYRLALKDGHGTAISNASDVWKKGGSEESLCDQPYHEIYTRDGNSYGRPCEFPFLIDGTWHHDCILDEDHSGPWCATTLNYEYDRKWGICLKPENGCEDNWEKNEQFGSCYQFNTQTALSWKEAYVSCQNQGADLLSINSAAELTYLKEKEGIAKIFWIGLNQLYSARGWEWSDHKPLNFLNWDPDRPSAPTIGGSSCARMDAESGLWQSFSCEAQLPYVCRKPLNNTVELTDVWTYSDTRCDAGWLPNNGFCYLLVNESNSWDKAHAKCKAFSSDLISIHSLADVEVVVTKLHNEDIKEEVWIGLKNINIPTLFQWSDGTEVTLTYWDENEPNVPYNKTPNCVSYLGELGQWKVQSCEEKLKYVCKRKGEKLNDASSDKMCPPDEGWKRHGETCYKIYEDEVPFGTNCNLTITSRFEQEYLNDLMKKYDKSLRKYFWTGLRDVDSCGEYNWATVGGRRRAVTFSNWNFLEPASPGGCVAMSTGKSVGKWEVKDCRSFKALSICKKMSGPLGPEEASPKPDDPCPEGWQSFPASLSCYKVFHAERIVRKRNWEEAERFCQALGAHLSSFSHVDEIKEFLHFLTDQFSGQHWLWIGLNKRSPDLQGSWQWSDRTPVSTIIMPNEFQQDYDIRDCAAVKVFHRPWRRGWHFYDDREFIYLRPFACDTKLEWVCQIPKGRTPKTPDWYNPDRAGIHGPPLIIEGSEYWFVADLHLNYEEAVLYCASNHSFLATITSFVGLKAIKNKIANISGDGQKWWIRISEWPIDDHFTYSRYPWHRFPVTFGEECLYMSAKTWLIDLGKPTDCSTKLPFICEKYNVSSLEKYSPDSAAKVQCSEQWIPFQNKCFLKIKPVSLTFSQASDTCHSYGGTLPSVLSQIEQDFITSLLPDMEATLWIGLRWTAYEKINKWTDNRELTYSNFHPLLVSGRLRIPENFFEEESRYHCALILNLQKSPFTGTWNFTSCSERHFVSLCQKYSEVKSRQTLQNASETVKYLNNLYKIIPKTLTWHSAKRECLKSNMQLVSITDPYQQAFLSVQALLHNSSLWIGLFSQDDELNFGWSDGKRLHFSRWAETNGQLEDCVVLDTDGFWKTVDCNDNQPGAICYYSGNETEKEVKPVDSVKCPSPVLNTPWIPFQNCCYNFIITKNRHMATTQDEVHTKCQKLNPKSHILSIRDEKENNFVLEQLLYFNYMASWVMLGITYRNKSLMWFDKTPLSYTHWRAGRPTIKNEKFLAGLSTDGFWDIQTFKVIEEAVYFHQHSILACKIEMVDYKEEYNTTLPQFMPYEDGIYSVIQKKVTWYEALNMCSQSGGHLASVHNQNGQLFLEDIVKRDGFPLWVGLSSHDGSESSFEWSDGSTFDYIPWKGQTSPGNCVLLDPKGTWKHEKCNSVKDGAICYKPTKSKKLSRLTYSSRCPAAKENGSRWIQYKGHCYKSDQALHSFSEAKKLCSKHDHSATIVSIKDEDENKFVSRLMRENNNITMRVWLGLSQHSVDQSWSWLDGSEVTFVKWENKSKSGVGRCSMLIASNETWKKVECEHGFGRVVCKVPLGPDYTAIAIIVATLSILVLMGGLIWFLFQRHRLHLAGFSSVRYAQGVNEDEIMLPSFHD

For the substance “FITC-labeled HDM-derived PDI, recombinant (enzyme)”, the percent of DEC205+ DCs bound by FITC-PDI was more than 50%.

Source of the values: publication PMC8080076.
